Experimental data published in patent US20170014503A1.
Where no end group is shown, it is not given here.

Biological target: 2F5 mAb
Test: cell-based or functional assay

B1: SP62 peptide gp41 652-671, biotinylated (peptide)
peptide: QQEKNEQELLELDKWASLWN
modifications: not fully specified
Q: How did the IC50 of 2F5 mAb against TND-669S Env-pseudovirus after pre-absorption with 0.3 µM peptide turn out when B1 was run?
A: 0.911
